Assay results from publication PMC9581967, “Helical ultrastructure of the metalloprotease meprin α in complex with a small molecule inhibitor” (Nature Communications, 2022).

Columns and labels:
[1] = target: meprin α R372A (human (from the printed accession Q16819)) (UniProt Q16819); assay: electron microscopy; variants imaged, concentration not stated (below the high concentration of 3 µM); N counts subunits
[2] = target: meprin α R372A (human (from the printed accession Q16819)) (UniProt Q16819); assay: mass photometry; single-molecule mass measurement, 20 °C; low concentration (10 nM in the results, roughly 2-5 nM in the methods); association of homodimers through the helical interface; N counts subunits
[3] = target: meprin α R372T (human (from the printed accession Q16819)) (UniProt Q16819); assay: electron microscopy; variants imaged, concentration not stated (below the high concentration of 3 µM); N counts subunits
[4] = target: meprin α R372T (human (from the printed accession Q16819)) (UniProt Q16819); assay: MALDI-TOF mass spectrometry; linear positive mode, DHAP matrix; shows only covalently (disulphide) linked species; N counts subunits
[5] = target: meprin α wild type (V22-S600 construct; zymogen or activated form not told for the experiment) (human (from the printed accession Q16819)) (UniProt Q16819); assay: as above
[6] = target: the molecule itself; assay: cryo-EM structure; meprin α alone (zymogen or active form), helical filament of covalent homodimers; 30 mM Tris, 100 mM NaCl, pH 7.4; pseudo single-particle analysis of filament segments

Molecule: meprin α R372A (from UniProt Q16819 22-600) (enzyme)
- stoichiometry N [1]: 2
- stoichiometry N [2]: 4

Molecule: meprin α R372T (from UniProt Q16819 22-600) (enzyme)
- stoichiometry N [3]: 2
- stoichiometry N [4]: 2

Molecule: meprin α wild type (V22-S600 construct; zymogen or activated form not told for the experiment) (from UniProt Q16819 22-600) (enzyme)
- stoichiometry N [5]: 2

B1: pro-meprin α (V22-S600), wild type zymogen (enzyme, UniProt Q16819 22-600, looked up)
chain: VPIKYLPEENVHDADFGEQKDISEINLAAGLDLFQGDILLQKSRNGLRDPNTRWTFPIPYILADNLGLNAKGAILYAFEMFRLKSCVDFKPYEGESSYIIFQQFDGCWSEVGDQHVGQNISIGQGCAYKAIIEHEILHALGFYHEQSRTDRDDYVNIWWDQILSGYQHNFDTYDDSLITDLNTPYDYESLMHYQPFSFNKNASVPTITAKIPEFNSIIGQRLDFSAIDLERLNRMYNCTTTHTLLDHCTFEKANICGMIQGTRDDTDWAHQDSAQAGEVDHTLLGQCTGAGYFMQFSTSSGSAEEAALLESRILYPKRKQQCLQFFYKMTGSPSDRLVVWVRRDDSTGNVRKLVKVQTFQGDDDHNWKIAHVVLKEEQKFRYLFQGTKGDPQNSTGGIYLDDITLTETPCPTGVWTVRNFSQVLENTSKGDKLQSPRFYNSEGYGFGVTLYPNSRESSGYLRLAFHVCSGENDAILEWPVENRQVIITILDQEPDVRNRMSSSMVFTTSKSHTSPAINDTVIWDRPSRVGTYHTDCNCFRSIDLGWSGFISHQMLKRRSFLKNDDLIIFVDFEDITHLS
modifications: N-linked glycosylations
notes: meprin α, UniProt Q16819, residues V22-S600 (native signal peptide omitted, stop codon after S600; lacks the EGF-like and transmembrane regions); pro-peptide still on the chain; Disulphide-linked (C308) homodimer; the homodimers join non-covalently into a helical filament; Secreted through the BiP signal peptide of pMT/BiP/V5; also called latent state; meprin α ectodomain; source: Schneider-2 …
- binding result [6]: binds
